From the supplement of paper PMC10567573

B1: PI4K2A (parent)
chain: FVKDPQGRIIAVFKPKNEEPYGHL

Variants of: B1
Test: protein stability index of a GFP-peptide fusion (GPS, HEK-293T) (PSI 1-6); higher = more stable
Conditions: c terminus: a fixed tail appended
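Further: lentivirally expressed fusions sorted by FACS into six bins by GFP to DsRed ratio, PSI derived from sequencing read proportions per bin multiplied by bin number.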

Going from FVKDPQGRIIAVFKPKNEMPYGHL [E19M] to FVKDPQGRIIAVFKPKNENPYGHL [E19N], the protein stability index rises from 1.81 to 1.91.

Compared with FVKDPQGRIIAVFKPKNEPPYGHL [E19P], FVKDPQGRIIAVFKPKNEQPYGHL [E19Q] is higher in protein stability index: 1.78 for the first, 2.03 for the second.

First: FVKDPQGRIIAVFKPKNERPYGHL [E19R]
Second: FVKDPQGRIIAVFKPKNESPYGHL [E19S]
The protein stability index of the first is lower: 1.34 for the first, 1.71 for the second.

Going from FVKDPQGRIIAVFKPKNETPYGHL [E19T] to FVKDPQGRIIAVFKPKNEVPYGHL [E19V], the protein stability index falls from 2.09 to 1.73.

Compared with FVKDPQGRIIAVFKPKNEWPYGHL [E19W], FVKDPQGRIIAVFKPKNEYPYGHL [E19Y] is lower in protein stability index: 2.91 for the first, 1.73 for the second.

First: FVKDPQGRIIAVFKPKNEEAYGHL [P20A]
Second: FVKDPQGRIIAVFKPKNEECYGHL [P20C]
The protein stability index of the first is higher: 2.94 for the first, 1.78 for the second.

Compared with FVKDPQGRIIAVFKPKNEEDYGHL [P20D], FVKDPQGRIIAVFKPKNEEEYGHL [P20E] is lower in protein stability index: 2.05 for the first, 1.75 for the second.

First: FVKDPQGRIIAVFKPKNEEFYGHL [P20F]
Second: FVKDPQGRIIAVFKPKNEEGYGHL [P20G]
The protein stability index of the first is lower: 1.94 for the first, 2.05 for the second.

First: FVKDPQGRIIAVFKPKNEEHYGHL [P20H]
Second: FVKDPQGRIIAVFKPKNEEIYGHL [P20I]
The protein stability index of the first is lower: 1.74 for the first, 1.76 for the second.

Compared with FVKDPQGRIIAVFKPKNEEKYGHL [P20K], FVKDPQGRIIAVFKPKNEELYGHL [P20L] is higher in protein stability index: 1.2 for the first, 1.55 for the second.

Compared with FVKDPQGRIIAVFKPKNEEMYGHL [P20M], FVKDPQGRIIAVFKPKNEENYGHL [P20N] is lower in protein stability index: 2.65 for the first, 1.94 for the second.

FVKDPQGRIIAVFKPKNEEQYGHL [P20Q] and FVKDPQGRIIAVFKPKNEERYGHL [P20R] are the same in protein stability index: 1.7 for the first, 1.7 for the second.

Compared with FVKDPQGRIIAVFKPKNEESYGHL [P20S], FVKDPQGRIIAVFKPKNEETYGHL [P20T] is higher in protein stability index: 2 for the first, 2.01 for the second.

Going from FVKDPQGRIIAVFKPKNEEVYGHL [P20V] to FVKDPQGRIIAVFKPKNEEWYGHL [P20W], the protein stability index rises from 1.16 to 2.05.

Compared with FVKDPQGRIIAVFKPKNEEYYGHL [P20Y], FVKDPQGRIIAVFKPKNEEPAGHL [Y21A] is lower in protein stability index: 1.91 for the first, 1.57 for the second.

Compared with FVKDPQGRIIAVFKPKNEEPCGHL [Y21C], FVKDPQGRIIAVFKPKNEEPDGHL [Y21D] is lower in protein stability index: 2 for the first, 1.85 for the second.

Compared with FVKDPQGRIIAVFKPKNEEPEGHL [Y21E], FVKDPQGRIIAVFKPKNEEPFGHL [Y21F] is higher in protein stability index: 1.44 for the first, 2.21 for the second.

First: FVKDPQGRIIAVFKPKNEEPGGHL [Y21G]
Second: FVKDPQGRIIAVFKPKNEEPHGHL [Y21H]
The protein stability index of the first is lower: 1.65 for the first, 2.59 for the second.

Going from FVKDPQGRIIAVFKPKNEEPIGHL [Y21I] to FVKDPQGRIIAVFKPKNEEPKGHL [Y21K], the protein stability index falls from 2.91 to 2.04.

First: FVKDPQGRIIAVFKPKNEEPLGHL [Y21L]
Second: FVKDPQGRIIAVFKPKNEEPMGHL [Y21M]
The protein stability index of the first is higher: 2.85 for the first, 1.54 for the second.

First: FVKDPQGRIIAVFKPKNEEPNGHL [Y21N]
Second: FVKDPQGRIIAVFKPKNEEPPGHL [Y21P]
The protein stability index of the first is lower: 1.5 for the first, 2.17 for the second.

First: FVKDPQGRIIAVFKPKNEEPQGHL [Y21Q]
Second: FVKDPQGRIIAVFKPKNEEPRGHL [Y21R]
The protein stability index of the first is higher: 2.53 for the first, 2.11 for the second.

Compared with FVKDPQGRIIAVFKPKNEEPSGHL [Y21S], FVKDPQGRIIAVFKPKNEEPTGHL [Y21T] is higher in protein stability index: 1.72 for the first, 1.74 for the second.

Going from FVKDPQGRIIAVFKPKNEEPVGHL [Y21V] to FVKDPQGRIIAVFKPKNEEPWGHL [Y21W], the protein stability index rises from 1.65 to 2.26.

Going from FVKDPQGRIIAVFKPKNEEPYAHL [G22A] to FVKDPQGRIIAVFKPKNEEPYCHL [G22C], the protein stability index rises from 1.66 to 1.93.

Compared with FVKDPQGRIIAVFKPKNEEPYDHL [G22D], FVKDPQGRIIAVFKPKNEEPYEHL [G22E] is higher in protein stability index: 1.74 for the first, 2.02 for the second.

Going from FVKDPQGRIIAVFKPKNEEPYFHL [G22F] to FVKDPQGRIIAVFKPKNEEPYHHL [G22H], the protein stability index rises from 1.81 to 1.88.

Going from FVKDPQGRIIAVFKPKNEEPYIHL [G22I] to FVKDPQGRIIAVFKPKNEEPYKHL [G22K], the protein stability index rises from 1.74 to 2.44.

First: FVKDPQGRIIAVFKPKNEEPYLHL [G22L]
Second: FVKDPQGRIIAVFKPKNEEPYMHL [G22M]
The protein stability index of the first is lower: 2.03 for the first, 2.1 for the second.

Compared with FVKDPQGRIIAVFKPKNEEPYNHL [G22N], FVKDPQGRIIAVFKPKNEEPYPHL [G22P] is higher in protein stability index: 1.73 for the first, 2.63 for the second.

Compared with FVKDPQGRIIAVFKPKNEEPYQHL [G22Q], FVKDPQGRIIAVFKPKNEEPYRHL [G22R] is higher in protein stability index: 2.09 for the first, 2.37 for the second.

First: FVKDPQGRIIAVFKPKNEEPYSHL [G22S]
Second: FVKDPQGRIIAVFKPKNEEPYTHL [G22T]
The protein stability index of the first is higher: 2.65 for the first, 1.41 for the second.

First: FVKDPQGRIIAVFKPKNEEPYVHL [G22V]
Second: FVKDPQGRIIAVFKPKNEEPYWHL [G22W]
The protein stability index of the first is lower: 1.55 for the first, 1.72 for the second.

Going from FVKDPQGRIIAVFKPKNEEPYYHL [G22Y] to FVKDPQGRIIAVFKPKNEEPYGAL [H23A], the protein stability index rises from 1.48 to 1.65.

Going from FVKDPQGRIIAVFKPKNEEPYGCL [H23C] to FVKDPQGRIIAVFKPKNEEPYGDL [H23D], the protein stability index rises from 1.94 to 2.39.

Going from FVKDPQGRIIAVFKPKNEEPYGEL [H23E] to FVKDPQGRIIAVFKPKNEEPYGFL [H23F], the protein stability index falls from 1.62 to 1.27.

Compared with FVKDPQGRIIAVFKPKNEEPYGGL [H23G], FVKDPQGRIIAVFKPKNEEPYGIL [H23I] is lower in protein stability index: 2.6 for the first, 2.38 for the second.

Going from FVKDPQGRIIAVFKPKNEEPYGKL [H23K] to FVKDPQGRIIAVFKPKNEEPYGLL [H23L], the protein stability index rises from 1.61 to 2.41.

Compared with FVKDPQGRIIAVFKPKNEEPYGML [H23M], FVKDPQGRIIAVFKPKNEEPYGNL [H23N] is higher in protein stability index: 1.87 for the first, 1.99 for the second.

First: FVKDPQGRIIAVFKPKNEEPYGPL [H23P]
Second: FVKDPQGRIIAVFKPKNEEPYGQL [H23Q]
The protein stability index of the first is higher: 2.47 for the first, 1.56 for the second.

Compared with FVKDPQGRIIAVFKPKNEEPYGRL [H23R], FVKDPQGRIIAVFKPKNEEPYGSL [H23S] is lower in protein stability index: 1.79 for the first, 1.36 for the second.

First: FVKDPQGRIIAVFKPKNEEPYGTL [H23T]
Second: FVKDPQGRIIAVFKPKNEEPYGVL [H23V]
The protein stability index of the first is lower: 1.81 for the first, 2.28 for the second.

First: FVKDPQGRIIAVFKPKNEEPYGWL [H23W]
Second: FVKDPQGRIIAVFKPKNEEPYGYL [H23Y]
The protein stability index of the first is higher: 1.83 for the first, 1.78 for the second.

First: FVKDPQGRIIAVFKPKNEEPYGHA [L24A]
Second: FVKDPQGRIIAVFKPKNEEPYGHC [L24C]
The protein stability index of the first is higher: 2.27 for the first, 2.24 for the second.

Compared with FVKDPQGRIIAVFKPKNEEPYGHD [L24D], FVKDPQGRIIAVFKPKNEEPYGHE [L24E] is lower in protein stability index: 2.03 for the first, 1.04 for the second.

Compared with FVKDPQGRIIAVFKPKNEEPYGHF [L24F], FVKDPQGRIIAVFKPKNEEPYGHG [L24G] is lower in protein stability index: 1.53 for the first, 1.48 for the second.

Going from FVKDPQGRIIAVFKPKNEEPYGHH [L24H] to FVKDPQGRIIAVFKPKNEEPYGHI [L24I], the protein stability index rises from 1.76 to 1.92.
